Experimental data from the supplement of paper PMC10065799, “High-throughput profiling of sequence recognition by tyrosine kinases and SH2 domains using bacterial peptide display” (eLife, 2023).

Columns and labels:
[1] = molecular target: EPHB1 (UniProt P54762); test: phosphorylation enrichment, bacterial display (enrichment ratio); higher = better substrate or ligand; peptides without Tyr show the background
[2] = molecular target: MERTK (UniProt Q12866); test: as above
[3] = molecular target: Hck (UniProt P08631); test: as above
Chain of Hck (P08631 whole entry, looked up): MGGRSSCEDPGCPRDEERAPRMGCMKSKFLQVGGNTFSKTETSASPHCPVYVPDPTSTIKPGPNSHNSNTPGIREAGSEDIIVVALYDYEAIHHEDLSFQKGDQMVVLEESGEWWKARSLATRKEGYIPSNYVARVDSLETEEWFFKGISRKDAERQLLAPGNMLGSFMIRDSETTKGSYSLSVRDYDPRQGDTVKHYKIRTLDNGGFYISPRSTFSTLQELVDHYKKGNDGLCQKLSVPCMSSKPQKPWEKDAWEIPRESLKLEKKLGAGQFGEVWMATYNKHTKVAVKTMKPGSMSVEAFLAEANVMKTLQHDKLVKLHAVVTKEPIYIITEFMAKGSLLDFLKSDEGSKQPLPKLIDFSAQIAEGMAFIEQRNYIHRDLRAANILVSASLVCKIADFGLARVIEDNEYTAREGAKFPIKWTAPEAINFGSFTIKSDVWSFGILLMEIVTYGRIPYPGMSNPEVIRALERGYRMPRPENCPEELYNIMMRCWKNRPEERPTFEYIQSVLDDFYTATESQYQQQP

[4] = test system: c-Src; test: as above
[5] = test system: c-Abl (mouse); test: as above
[6] = molecular target: FGFR3 (UniProt P22607); test: as above
Chain of FGFR3 (P22607 whole entry, looked up): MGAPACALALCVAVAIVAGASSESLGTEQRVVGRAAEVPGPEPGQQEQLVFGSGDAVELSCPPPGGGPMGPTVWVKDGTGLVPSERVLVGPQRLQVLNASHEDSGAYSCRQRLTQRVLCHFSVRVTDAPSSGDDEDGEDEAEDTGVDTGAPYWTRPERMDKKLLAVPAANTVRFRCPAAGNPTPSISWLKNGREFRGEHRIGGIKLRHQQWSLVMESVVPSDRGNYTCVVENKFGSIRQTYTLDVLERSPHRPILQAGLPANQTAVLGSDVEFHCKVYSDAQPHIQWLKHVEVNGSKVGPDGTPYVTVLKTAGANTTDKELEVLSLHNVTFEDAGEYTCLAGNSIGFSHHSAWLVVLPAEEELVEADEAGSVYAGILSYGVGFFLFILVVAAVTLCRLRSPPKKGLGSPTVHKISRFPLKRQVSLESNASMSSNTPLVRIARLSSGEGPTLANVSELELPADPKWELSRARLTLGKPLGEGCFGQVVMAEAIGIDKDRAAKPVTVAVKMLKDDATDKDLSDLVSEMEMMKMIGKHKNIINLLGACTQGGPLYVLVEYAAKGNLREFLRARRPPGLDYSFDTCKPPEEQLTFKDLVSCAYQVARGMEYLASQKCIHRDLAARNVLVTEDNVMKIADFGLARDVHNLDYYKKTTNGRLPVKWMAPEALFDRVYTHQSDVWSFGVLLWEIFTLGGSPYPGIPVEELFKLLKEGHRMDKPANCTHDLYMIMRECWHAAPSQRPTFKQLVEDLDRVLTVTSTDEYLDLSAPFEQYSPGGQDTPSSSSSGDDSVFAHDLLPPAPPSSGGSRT

[7] = molecular target: EPHB2 (UniProt P29323); test: as above
Chain of EPHB2 (P29323 whole entry, looked up): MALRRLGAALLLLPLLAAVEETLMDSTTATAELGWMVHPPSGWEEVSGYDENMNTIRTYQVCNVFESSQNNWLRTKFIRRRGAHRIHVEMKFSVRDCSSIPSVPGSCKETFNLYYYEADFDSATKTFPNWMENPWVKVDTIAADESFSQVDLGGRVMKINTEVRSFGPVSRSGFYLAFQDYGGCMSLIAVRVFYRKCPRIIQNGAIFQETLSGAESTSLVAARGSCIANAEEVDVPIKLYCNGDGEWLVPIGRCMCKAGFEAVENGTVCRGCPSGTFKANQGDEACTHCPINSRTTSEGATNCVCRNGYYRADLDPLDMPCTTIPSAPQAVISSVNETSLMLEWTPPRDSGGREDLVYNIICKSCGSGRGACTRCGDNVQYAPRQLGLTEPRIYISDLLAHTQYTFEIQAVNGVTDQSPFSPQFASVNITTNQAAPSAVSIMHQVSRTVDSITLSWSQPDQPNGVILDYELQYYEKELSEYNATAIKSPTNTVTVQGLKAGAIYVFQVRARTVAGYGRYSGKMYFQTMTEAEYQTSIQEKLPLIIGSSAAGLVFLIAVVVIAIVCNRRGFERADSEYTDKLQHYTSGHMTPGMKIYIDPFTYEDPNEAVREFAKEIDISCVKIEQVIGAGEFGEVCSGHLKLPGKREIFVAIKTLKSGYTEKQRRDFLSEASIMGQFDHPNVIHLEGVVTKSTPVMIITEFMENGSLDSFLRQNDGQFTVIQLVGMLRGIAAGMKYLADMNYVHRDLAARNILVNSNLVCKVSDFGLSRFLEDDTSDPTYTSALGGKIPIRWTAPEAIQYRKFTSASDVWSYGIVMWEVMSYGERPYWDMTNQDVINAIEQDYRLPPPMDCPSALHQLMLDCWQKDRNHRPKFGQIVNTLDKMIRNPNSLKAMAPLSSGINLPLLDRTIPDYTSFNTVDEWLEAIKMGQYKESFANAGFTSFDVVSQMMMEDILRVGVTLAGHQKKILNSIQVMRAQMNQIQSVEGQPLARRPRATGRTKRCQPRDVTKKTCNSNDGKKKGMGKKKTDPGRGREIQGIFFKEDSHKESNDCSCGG

[8] = molecular target: Fyn (UniProt P06241); test: as above
Chain of Fyn (P06241 whole entry, looked up): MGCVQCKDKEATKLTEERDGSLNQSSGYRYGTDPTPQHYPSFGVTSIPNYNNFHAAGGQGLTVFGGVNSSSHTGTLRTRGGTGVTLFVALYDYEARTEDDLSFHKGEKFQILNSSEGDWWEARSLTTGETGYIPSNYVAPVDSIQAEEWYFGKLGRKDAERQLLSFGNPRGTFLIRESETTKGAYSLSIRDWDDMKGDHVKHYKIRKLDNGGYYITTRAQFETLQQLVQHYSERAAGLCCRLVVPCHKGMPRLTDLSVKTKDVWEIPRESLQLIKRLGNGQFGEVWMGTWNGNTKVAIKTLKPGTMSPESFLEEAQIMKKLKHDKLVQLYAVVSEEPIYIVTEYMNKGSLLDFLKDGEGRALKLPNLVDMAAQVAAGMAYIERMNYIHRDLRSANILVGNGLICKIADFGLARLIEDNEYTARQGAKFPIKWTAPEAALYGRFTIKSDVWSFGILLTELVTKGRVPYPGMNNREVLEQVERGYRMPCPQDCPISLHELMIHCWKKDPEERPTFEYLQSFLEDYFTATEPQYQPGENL

[9] = test system: AncSZ; test: as above
[10] = molecular target: Fes (UniProt P07332); test: as above
[11] = molecular target: Jak2 (UniProt O60674); test: as above
Chain of Jak2 (O60674 whole entry, looked up): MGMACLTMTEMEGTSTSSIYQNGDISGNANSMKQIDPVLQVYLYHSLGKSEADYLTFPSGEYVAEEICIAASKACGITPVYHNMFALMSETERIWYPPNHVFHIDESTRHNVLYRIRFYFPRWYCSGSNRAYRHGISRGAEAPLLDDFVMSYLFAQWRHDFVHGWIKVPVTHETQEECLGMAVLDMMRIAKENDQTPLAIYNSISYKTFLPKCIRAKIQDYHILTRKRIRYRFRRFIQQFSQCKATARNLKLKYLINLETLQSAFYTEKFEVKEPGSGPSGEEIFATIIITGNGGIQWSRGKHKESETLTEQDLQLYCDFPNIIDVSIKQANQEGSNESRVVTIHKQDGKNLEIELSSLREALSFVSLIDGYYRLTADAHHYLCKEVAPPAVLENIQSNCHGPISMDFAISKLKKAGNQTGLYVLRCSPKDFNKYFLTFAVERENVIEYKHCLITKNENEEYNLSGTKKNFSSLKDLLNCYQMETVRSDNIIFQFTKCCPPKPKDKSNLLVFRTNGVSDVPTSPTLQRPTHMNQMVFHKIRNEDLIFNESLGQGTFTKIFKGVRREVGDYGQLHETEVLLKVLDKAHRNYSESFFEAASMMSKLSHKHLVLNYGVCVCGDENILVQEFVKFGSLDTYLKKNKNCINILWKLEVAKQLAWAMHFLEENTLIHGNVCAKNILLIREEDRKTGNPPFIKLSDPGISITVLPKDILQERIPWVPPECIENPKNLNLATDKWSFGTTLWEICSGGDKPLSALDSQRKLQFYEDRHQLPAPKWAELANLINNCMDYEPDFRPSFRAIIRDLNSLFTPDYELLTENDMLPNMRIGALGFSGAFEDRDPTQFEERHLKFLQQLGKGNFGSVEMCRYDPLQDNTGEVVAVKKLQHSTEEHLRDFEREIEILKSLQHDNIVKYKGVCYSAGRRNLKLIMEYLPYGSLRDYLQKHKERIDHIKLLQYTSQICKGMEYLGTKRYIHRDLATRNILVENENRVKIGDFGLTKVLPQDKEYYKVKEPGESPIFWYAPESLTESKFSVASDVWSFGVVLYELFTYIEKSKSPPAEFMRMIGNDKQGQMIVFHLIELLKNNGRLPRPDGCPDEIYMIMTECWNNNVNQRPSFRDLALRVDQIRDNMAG

[12] = molecular target: FGFR1 (UniProt P11362); test: as above
Chain of FGFR1 (P11362 whole entry, looked up): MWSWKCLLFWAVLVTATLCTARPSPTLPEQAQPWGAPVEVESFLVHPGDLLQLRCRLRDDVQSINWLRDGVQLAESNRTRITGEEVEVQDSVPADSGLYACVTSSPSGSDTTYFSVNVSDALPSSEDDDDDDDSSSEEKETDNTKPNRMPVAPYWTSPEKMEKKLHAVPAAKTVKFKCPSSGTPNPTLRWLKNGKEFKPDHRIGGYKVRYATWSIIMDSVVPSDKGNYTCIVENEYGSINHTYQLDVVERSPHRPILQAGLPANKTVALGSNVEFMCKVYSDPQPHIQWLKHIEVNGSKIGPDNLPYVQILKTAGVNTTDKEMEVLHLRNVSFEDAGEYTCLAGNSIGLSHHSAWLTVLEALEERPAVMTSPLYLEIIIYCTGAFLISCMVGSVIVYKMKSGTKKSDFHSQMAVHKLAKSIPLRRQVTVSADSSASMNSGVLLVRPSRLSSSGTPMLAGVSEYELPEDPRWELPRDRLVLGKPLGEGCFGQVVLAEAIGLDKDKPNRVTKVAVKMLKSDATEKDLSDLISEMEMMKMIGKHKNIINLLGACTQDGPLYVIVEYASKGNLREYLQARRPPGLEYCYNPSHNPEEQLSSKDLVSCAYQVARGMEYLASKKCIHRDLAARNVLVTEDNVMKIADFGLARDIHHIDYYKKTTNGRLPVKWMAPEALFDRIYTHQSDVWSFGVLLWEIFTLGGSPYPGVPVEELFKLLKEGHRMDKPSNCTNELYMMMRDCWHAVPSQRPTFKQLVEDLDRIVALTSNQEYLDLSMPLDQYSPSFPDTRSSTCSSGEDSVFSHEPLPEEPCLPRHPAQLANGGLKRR

[13] = test system: Fer (mouse); test: as above
[14] = molecular target: c-Src SH2; test: SH2 binding enrichment of the phosphorylated peptide, bacterial display (enrichment ratio); higher = better substrate or ligand; peptides without Tyr show the background
[15] = molecular target: SHP2-C SH2; test: as above
[16] = molecular target: Grb2 SH2 (UniProt P62993); test: as above
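Wherever SH2 binding enrichment of the phosphorylated peptide, bacterial display is given: peptide library displayed on the E. coli surface as eCPX fusions, selected cells deep-sequenced, score is each peptide's frequency after selection divided by its frequency in the input.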
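Wherever phosphorylation enrichment, bacterial display is given: 11-residue human phosphosite peptides and single-mutation variants displayed on the E. coli surface, counted by deep sequencing, each peptide's frequency after selection divided by its frequency in the unselected input library; frequency after pTyr selection over input frequency; kinase dosed for 20-30% of maximal phosphorylation in three min.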

Sequence | SH2 binding enrichment [14] | SH2 binding enrichment [15] | SH2 binding enrichment [16] | phosphorylation enrichment [1] | phosphorylation enrichment [2] | phosphorylation enrichment [3] | phosphorylation enrichment [4] | phosphorylation enrichment [5] | phosphorylation enrichment [6] | phosphorylation enrichment [7] | phosphorylation enrichment [8] | phosphorylation enrichment [9] | phosphorylation enrichment [10] | phosphorylation enrichment [11] | phosphorylation enrichment [12] | phosphorylation enrichment [13]
FTRNYYVQAVL [CYBA_Y88_R90Q] | 0.591 | 0.834 | 0.839 | 0.66 | 0.887 | 0.521 | 0.538 | 0.813 | 2.67 | 0.558 | 0.486 | 1.01 | 0.981 | 1.06 | 1.59 | 0.512
GANFEYIIAEK [ECHS1_Y35] | 0.447 | 0.547 | 0.576 | 0.501 | 0.513 | 0.553 | 0.48 | 0.544 | 0.594 | 0.455 | 0.479 | 0.911 | 0.862 | 0.883 | 0.523 | 0.406
GDFFRSLAEVA [YWHAG_Y133_Y133S_YF] | 0.4 | 0.696 | 0.913 | 0.423 | 0.357 | 0.405 | 0.425 | 0.721 | 0.595 | 0.503 | 0.464 | 0.871 | 0.865 | 0.72 | 0.486 | 0.438
GEDLSYGDLPP [IRS1_Y151_V154L] | 0.622 | 0.788 | 0.868 | 0.661 | 0.543 | 0.564 | 0.582 | 0.899 | 0.786 | 0.664 | 0.571 | 1.3 | 1.34 | 1.22 | 0.597 | 0.794
GETEQYVGGGG [FAT4_Y4980_A4977T] | 0.506 | 0.553 | 0.798 | 0.526 | 0.414 | 0.467 | 0.419 | 0.624 | 0.599 | 0.475 | 0.475 | 0.889 | 0.922 | 0.66 | 0.437 | 0.436
GFAGKYIAMVM [CYP19A1_Y441_C437Y_YF] | 0.755 | 0.81 | 0.821 | 0.41 | 0.525 | 0.556 | 0.599 | 0.473 | 0.49 | 0.823 | 0.453 | 0.694 | 0.858 | 0.594 | 0.454 | 0.539
GGEEFYVHFVG [KAT8_Y90_R86G_YF] | 0.308 | 0.538 | 0.626 | 0.747 | 0.433 | 0.612 | 0.501 | 0.967 | 0.96 | 0.605 | 0.58 | 1.34 | 1.39 | 1.24 | 0.648 | 0.592
GGFSRYDEGSG [RECQL5_Y484_D480G] | 0.459 | 0.62 | 0.858 | 0.431 | 0.435 | 0.468 | 0.416 | 0.636 | 0.659 | 0.558 | 0.432 | 0.733 | 0.928 | 0.729 | 0.473 | 0.483
GGMTEYNLVVV [KRAS_Y4_K5N] | 0.352 | 0.488 | 0.669 | 0.642 | 0.398 | 0.609 | 0.478 | 0.758 | 1.05 | 0.552 | 0.486 | 1.21 | 1.1 | 0.981 | 1.08 | 1.17
GHLFACDWISI [BEST1_Y227_Y227C_YF] | 0.749 | 0.806 | 0.945 | 0.408 | 0.396 | 0.469 | 0.386 | 0.531 | 0.639 | 0.522 | 0.45 | 0.937 | 1.01 | 0.711 | 0.613 | 0.487
GIVEDYRPTFY [ACVRL1_Y421_P424T] | 0.763 | 0.657 | 0.875 | 0.561 | 0.404 | 0.475 | 0.347 | 0.899 | 0.648 | 0.484 | 0.513 | 0.83 | 0.866 | 0.661 | 0.441 | 0.373
GIYSGYDDAWD [POLR1C_Y36_N32I] | 5.53 | 0.632 | 0.854 | 2.36 | 2.25 | 5.99 | 5.63 | 0.835 | 0.647 | 2.5 | 7.64 | 1.44 | 1.09 | 1.05 | 0.568 | 1.46
GLDGSYLLTDS [SH2D1A_Y29_R32T] | 0.505 | 0.648 | 0.683 | 0.491 | 0.369 | 0.435 | 0.469 | 0.551 | 0.604 | 0.541 | 0.423 | 0.864 | 0.863 | 0.697 | 0.483 | 0.455
GLETSYIEDNC [PAH_Y24_Q20L] | 0.539 | 0.617 | 0.726 | 0.585 | 0.497 | 0.487 | 0.513 | 0.744 | 0.564 | 0.569 | 0.525 | 1.04 | 0.937 | 0.873 | 0.655 | 0.466
GLPQTYCVSGP [DYSF_Y1684] | 0.611 | 0.528 | 0.839 | 0.72 | 0.605 | 0.631 | 0.524 | 0.583 | 0.655 | 0.667 | 0.629 | 0.978 | 0.978 | 0.609 | 0.497 | 0.559
GLVFLYMEKNQ [PRELP_Y156] | 0.634 | 0.873 | 0.979 | 0.607 | 0.262 | 0.337 | 0.37 | 0.854 | 0.719 | 0.523 | 0.304 | 0.932 | 1.18 | 1.17 | 0.339 | 0.635
GMAHNYRNSSQ [AASS_Y188] | 0.482 | 0.57 | 0.702 | 0.255 | 0.418 | 0.414 | 0.386 | 0.313 | 0.431 | 0.47 | 0.446 | 0.589 | 0.45 | 0.434 | 0.371 | 0.384
GPGLVYRVANK [FLNB_Y1833_G1834R] | 0.499 | 0.722 | 0.999 | 0.471 | 0.399 | 0.498 | 0.541 | 0.716 | 0.597 | 0.436 | 0.485 | 0.785 | 0.793 | 0.688 | 0.515 | 0.445
GPKSTYISSAG [GOLGA5_Y62_A67G] | 0.38 | 0.581 | 0.713 | 0.298 | 0.389 | 0.319 | 0.365 | 0.464 | 0.374 | 0.382 | 0.395 | 0.496 | 0.587 | 0.411 | 0.326 | 0.345
GSERDYTFEEL [EIF2S2_Y174_YF] | 0.537 | 0.583 | 0.897 | 0.571 | 0.479 | 0.505 | 0.566 | 0.738 | 0.749 | 0.598 | 0.453 | 1.14 | 1.27 | 1.07 | 0.602 | 0.499
GTYVIYVRFSG [FLNB_Y1687_G1691S] | 0.587 | 1.44 | 1.05 | 0.696 | 0.455 | 0.514 | 0.532 | 0.941 | 0.828 | 0.543 | 0.509 | 1.26 | 1.3 | 1.31 | 0.447 | 0.639
GVLDIYGFEIL [MYO1A_Y382] | 0.343 | 0.574 | 0.793 | 0.903 | 0.41 | 1.59 | 1.76 | 0.695 | 0.787 | 0.541 | 2.92 | 1.14 | 1.14 | 0.978 | 0.579 | 0.694

Further lines, with some results ahead:

SH2 binding enrichment [14] | SH2 binding enrichment [15] | SH2 binding enrichment [16] | Sequence | phosphorylation enrichment [1] | phosphorylation enrichment [2] | phosphorylation enrichment [3] | phosphorylation enrichment [4] | phosphorylation enrichment [5] | phosphorylation enrichment [6] | phosphorylation enrichment [7] | phosphorylation enrichment [8] | phosphorylation enrichment [9] | phosphorylation enrichment [10] | phosphorylation enrichment [11] | phosphorylation enrichment [12] | phosphorylation enrichment [13]
0.528 | 0.632 | 0.744 | GDAMLYFPSVS [GPR143_Y177_A173D_YF] | 0.511 | 0.726 | 0.692 | 0.746 | 0.674 | 0.98 | 0.446 | 0.55 | 0.721 | 0.823 | 1.92 | 0.801 | 0.521
0.711 | 1.19 | 1.44 | GDLTDYLMKIL [ACTA1_Y190_R185G] | 0.508 | 0.355 | 0.453 | 0.323 | 0.56 | 0.509 | 0.476 | 0.397 | 0.788 | 0.821 | 0.648 | 0.437 | 0.42
0.464 | 0.584 | 1.16 | GEAEQYVGGGG [FAT4_Y4980] | 0.394 | 0.371 | 0.44 | 0.327 | 0.584 | 0.687 | 0.414 | 0.465 | 0.842 | 0.87 | 0.746 | 0.543 | 0.448
0.48 | 0.639 | 0.598 | GEHSIYCTVNN [CD55_Y266] | 6.56 | 2.08 | 5.61 | 4.66 | 1.98 | 1.07 | 5.39 | 5.28 | 1.55 | 1.73 | 1.22 | 0.955 | 5.03
0.706 | 1 | 1.28 | GFKVRYATGSI [FGFR1_Y210_W213G_YF] | 0.473 | 0.455 | 0.44 | 0.343 | 0.541 | 0.471 | 0.404 | 0.417 | 0.628 | 0.689 | 0.651 | 0.516 | 0.362
0.531 | 0.632 | 0.802 | GGGCGYNRSSG [FUS_Y232_G230C] | 0.392 | 0.412 | 0.42 | 0.435 | 0.815 | 0.465 | 0.426 | 0.422 | 0.663 | 0.717 | 0.701 | 0.448 | 0.434
0.43 | 0.587 | 0.805 | GGGGSYNNFGN [HNRNPA1_Y312_D314N] | 0.379 | 0.308 | 0.435 | 0.325 | 0.335 | 0.403 | 0.416 | 0.388 | 0.545 | 0.564 | 0.463 | 0.362 | 0.378
0.951 | 0.575 | 0.808 | GGYNNYGYGSD [HNRNPH3_Y159_N163S] | 1.48 | 0.479 | 0.475 | 0.38 | 0.608 | 0.467 | 2.4 | 0.379 | 0.71 | 0.697 | 0.611 | 0.406 | 0.421
0.468 | 0.832 | 0.985 | GIVEDYRPRFF [ACVRL1_Y421_P424R_YF] | 0.616 | 0.626 | 0.427 | 0.459 | 0.681 | 0.655 | 0.468 | 0.372 | 0.811 | 0.814 | 0.816 | 0.467 | 0.513
0.624 | 0.512 | 0.949 | GKGGSYSKAEW [HLA-E_Y341] | 0.481 | 0.405 | 0.416 | 0.375 | 0.496 | 0.378 | 0.467 | 0.415 | 0.493 | 0.613 | 0.567 | 0.466 | 0.368
0.508 | 0.681 | 0.919 | GSERDYTFDEL [EIF2S2_Y174_E177D_YF] | 0.577 | 0.515 | 0.528 | 0.639 | 0.837 | 0.871 | 0.564 | 0.474 | 1.25 | 1.18 | 1.21 | 0.583 | 0.582
